For experiment [1], the target named is RBD-SD1 (SARS-CoV-2), P0DTC2. To be noted: remark: other sources report otherwise.
For experiment [2], the target named is RBD-SD1 (SARS-CoV-2), P0DTC2. Nature of the experiment: epitope analysis, FIG. 3B; exponent as printed. Conditions: remark: other sources report otherwise.

Read-outs that look alike come from different tables or passages of the source.

B1: N-612-004 (antibody, V domains shown)
VH: EVQLVESGGGLVQPGGSLRLSCAASGFTFSSYYMHWVRQAPGKGLEWVSAISGSGGYTYYADSVKGRFTISRDNSKNTLYLQMNSLRAEDTAVYYCARDRDHAYDWGFDVWGQGTLVTVSS
VL: DIQMTQSPSSLSASVGDRVTITCQASQDISNYLNWYQQKPGKAPKLLIYDASNLETGVPSRFSGSGSGTDFTFTISSLQPEDIATYYCQQWADWPLTFGQGTKVEIK
Take B1: in experiment [1], the Kd turned out to be 2.95 nM, the koff was determined as 0.000937 s⁻¹ and the kon was 317000 M⁻¹ s⁻¹. This molecule displayed a koff in experiment [2] of 0.00034 s⁻¹.

As usually defined, the Kd is a measure of binding affinity in units of concentration. One may read the koff as the first-order rate constant of dissociation. A higher koff goes with fast dissociation. A word on the kon: it is the rate constant with which the complex forms.

(Values after patent US20230218743A1.)
